Here are results for two molecules from paper PMC7955166, “Structural Basis of CYRI-B Direct Competition with Scar/WAVE Complex for Rac1” (Structure(London, England:1993), 2021).

The Kd is the constant that tells how readily two partners part at equilibrium. Read a high Kd as weaker binding.

Data set [1] deals with the molecule itself. In words: crystal structure; CYRI-BΔN alone, selenomethionine SAD, 2.37Å, two molecules in the asymmetric unit; crystals at 291K, 0.1M carboxylic acid, 8% MPD_P1K_P33, 0.1M MOPS/HEPES-Na pH 8.0.
The target in data set [2] is Rac1Q61L (human, UniProt P63000 1-192, Q61L). Description: SPR; Biacore T200; anti-MBP antibody coupled on a CM5 chip; MBP-CYRI-BΔN captured (~800 RU) on flow-cell 2, MBP (400 RU) on flow-cell 1; Rac1Q61L 0.625μM-80μM as analyte. Particulars: both partners purified. (SPR reads the build-up and loss of mass on a sensor chip optically.)

B1: mouse CYRI-B residues 26-324 (CYRI-BΔN) (domain or fragment, UniProt Q921M7 26-324, looked up)
chain: AQPTESEKEIYNQVNVVLKDAEGILEDLQSYRGAGHEIREAIQHPADEKLQEKAWGAVVPLVGKLKKFYEFSQRLEAALRGLLGALTSTPYSPTQHLEREQALAKQFAEILHFTLRFDELKMTNPAIQNDFSYYRRTLSRMRINNVPAEGENEVNNELANRMSLFYAEATPMLKTLSDATTKFVSENKNLPIENTTDCLSTMASVCRVMLETPEYRSRFTNEETVSFCLRVMVGVIILYDHVHPVGAFAKTSKIDMKGCIKVLKDQPPNSVEGLLNALRYTTKHLNDETTSKQIRSMLQ
modifications: selenomethionine labelled
notes: CYRI-B (Fam49B), mouse, residues 26-324 (entire DUF1394 domain; N-terminal residues 1-25 truncated); Two copies in the asymmetric unit of PDB 7AJL; also called Fam49B; source: E. coli B834 (DE3), selenomethionine labelled, purified (HisTrap, TEV, HisTrap flow-through, Superdex S200); not shown: His10, N-terminal, cleaved; MBP, N-terminal, cleaved
Regarding B1, in data set [1], the binding result is on record as “binds”.

B2: MBP-CYRI-BΔN (domain or fragment)
chain: AQPTESEKEIYNQVNVVLKDAEGILEDLQSYRGAGHEIREAIQHPADEKLQEKAWGAVVPLVGKLKKFYEFSQRLEAALRGLLGALTSTPYSPTQHLEREQALAKQFAEILHFTLRFDELKMTNPAIQNDFSYYRRTLSRMRINNVPAEGENEVNNELANRMSLFYAEATPMLKTLSDATTKFVSENKNLPIENTTDCLSTMASVCRVMLETPEYRSRFTNEETVSFCLRVMVGVIILYDHVHPVGAFAKTSKIDMKGCIKVLKDQPPNSVEGLLNALRYTTKHLNDETTSKQIRSMLQ
notes: The purification of the uncleaved MBP fusion used for SPR is not described; source: E. coli BL21 pLysS; not shown: His10, N-terminal, kept; MBP, N-terminal, kept
In data set [2], B2 came in with a Kd of 25 µM.
